# B1: MPT32 (also called Rv1860 or Apa): T10V (protein)
# parent chain: MHQVDPNLTRRKGRLAALAIAAMASASLVTVAVPATANADPEPAPPVPTTAASPPSTAAAPPAPATPVAPPPPAAANTPNAQPGDPNAAPPPADPNAPPPPVIAPNAPQPVRIDNPVGGFSFALPAGWVESDAAHFDYGSALLSKTTGDPPFPGQPPPVANDTRIVLGRLDQKLYASAEATDSKAAARLGSDMGEFYMPYPGTRINQETVSLDANGVSGSASYYEVKFSDPSKPNGQIWTGVIGSPAANAPDAGPPQRWFVVWLGTANNPVDKGAAKALAESIRPLVAPPPAPAPAPAEPAPAPAPAGEVAPTPTTPTPQRTLPA
# B2: MPT32 (also called Rv1860 or Apa): T18V (protein)
# parent chain: B1 parent chain
# Conditions: glycan lost; control: wild type
row,Protein,other: T cell antigenicity
1,B1,no change
2,B2,increases
